Laboratory results published in the nanobody polyreactivity screen of Harvey et al. (2022).

Assay: yeast display, Sf9 membrane polyspecificity reagent, FACS + sequencing; frameworks hold sequencing errors
Method in brief: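 Using colony PCR, genes from sorted yeast display clones were amplified, then sequenced on MiSeq at 2 × 250 and filtered by CDR length. The clones had been stained with 10% biotinylated, detergent-solubilized Sf9 membrane reagent for 1 hour at 4 °C and sorted by FACS into low and high (top ~1%) gates on anti-HA and streptavidin fluorescence. Polyreactivity labels come from the gate of origin.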

Row | Sequence | polyreactivity (PSR sort gate)
1 | QVQLVESGGGLVQAGGSLRLSCAASGRTFGAYAMGWYRQAPGKERELVASISRSGGTTYYADSVKGRFTISRDNAKNTVYLQMNSLKPEDTAVYYCAAQYVRYGHYYWGQGTQVTVSS | high polyreactivity
2 | QVQLVESGGGLVQAGGSLRLSCAASGRTFGAYTMGGYRQAPGKDRELVAAISSGTRTNYADSVKGRFTISRDNAKNTVYLQMNSLIPEDTAVYYCAATVLGHNRVYYWGQGTQVTVSS | low polyreactivity
3 | QVQLVESGGGLVQAGGSLRLSCAASGRTFGAYTMRWYRQAPGTERELVAAINRSGGDTYYADSVKGRFTISRDTAKNTVYLQMNSLKPEDNAVYYCNAEPRYGTYDYWGQGTQVTVSS | low polyreactivity
4 | QVQLVESGGGLVQAGGSLRLSCAASGRTFGDYAKGWYRQAPGKERELVAAISKSGGITYYADSVKGRFTISRDNAKNTVYLQMNSLKPEDTAVYYCAARRSGEGNYWGQGTQVTVSS | high polyreactivity
5 | QVQLVESGGGLVQAGGSLRLSCAASGRTFGEYAMGWYRQAPGKERELVAAISSAGSTYYADSVKGRFTISRDNAKNTVYLQMNSMKPDDTAVYYCASSRKYGYGYWGQRTQVTVSS | high polyreactivity
6 | QVQLVESGGGLVQAGGSLRLSCAASGRTFGEYVMGGYRQAPGKERELVASISRRGGSTYYADSVKGRFTLSRDNAKNTVYVLMNSQNPEDTAVYYCAKYRTQWSKNLYPYGFDYWGHGTQVTVSS | low polyreactivity
7 | QVQLVESGGGLVQAGGSLRLSCAASGRTFGFNAMGWSRPAPGKERELVAVITRGGSTYADSVKGRFTISRDNAKNTVYLQMNSLKPEDTAVYYCAAYRYGFKTWMDYWGQGTQVTVSS | high polyreactivity
8 | QVQLVESGGGLVQAGGSLRLSCAASGRTFGFNAMGWYRQAPGKARELVAAISSSSSSTYYADSVKGRFTISRDNAKNTVYLQMNSLKPEDTAVYYCAKQEPYPFGGYYEYDYWGQGTQVTVSS | low polyreactivity
9 | QVQLVESGGGLVQAGGSLRLSCAASGRTFGFNAMGWYRQAPGKERELVAAISGSGGRTYYADSVKGRFTISRDNAKNTVYLQMNSLKPEDTAVYYCAAGARRGGSGYWGQGTQVTVSS | high polyreactivity
10 | QVQLVESGGGLVQAGGSLRLSCAASGRTFGFNAMGWYRQAPGKERELVATITTGGSTNYADSVKGRFTISRDNAKNTVYLQMNSLKPEDTAVYYCATDGWFRSGYKYFTHFYFWGQGTQVTVSS | high polyreactivity
11 | QVQLVESGGGLVQAGGSLRLSCAASGRTFGFNVMGCSRQAPGKERELVAAISWSGGSTYYADSVKGRFTISRDNAKNTVYLQLNSLKPEDTAVYYCNKRDDHRYGYWGQGTQVTVSS | low polyreactivity
12 | QVQLVESGGGLVQAGGSLRLSCAASGRTFGFNVMGWYRQAPGKEREFVAAITRSGGSTYYADSVKGRFTISRDIAKNTVYLQMNSLKPEDTAVYSCAAYKFSARYYYWGQGTQVTVSS | high polyreactivity
13 | QVQLVESGGGLVQAGGSLRLSCAASGRTFGFYAMGWYRQAPGKEREFVAAIYKSGGSTYYADSVKGRFTISRDIANNTVYLQMISLKPEDTAVYYCIKKVGSYYRSYYYWGQGTQVTVSS | high polyreactivity
14 | QVQLVESGGGLVQAGGSLRLSCAASGRTFGFYAMGWYRQAPGKERELVAAITSSGGRTYYADSVKGRFTISRDNAKNTVYLQMNSLKPEDTAVYYCATSGRGKYIRYGYWGQGTQVTVSS | high polyreactivity
15 | QVQLVESGGGLVQAGGSLRLSCAASGRTFGFYAMGWYRQAPGKERELVASITWRRGRTYYADSVKGRFTISRDNAKNTLYLQMNSLNPEDTAVYYCAAVTFSYDGYDYWGQGTQVTVSS | low polyreactivity
16 | QVQLVESGGGLVQAGGSLRLSCAASGRTFGGNAMGWYRQAPGKEWELVAAIDQSGGSTYYADSVKGRFTISRDNAKNTVYLQMISLKPEDTAVYYCARKTYSYFGHYYFWGQGTQVTVSS | low polyreactivity
17 | QVQLVESGGGLVQAGGSLRLSCAASGRTFGGNTMGWYRQAPGKERELVAAISFSGGSTYYADSVKGRFTISRDNAKNTVYLQMNSLKPEDTAVYYCAKDPITATTLDERVYYWGQGTQVTVSS | low polyreactivity
18 | QVQLVESGGGLVQAGGSLRLSCAASGRTFGGNVRGWYRQAPGKERELVAAISYSGGSTHYADSVKGRFTISRDNAKNTVYLQMMSLIPEDTAVYYCNKPFPYYPDGPNGYDYWGQGTQVTVSS | low polyreactivity
19 | QVQLVESGGGLVQAGGSLRLSCAASGRTFGGYAMGSYRQAPGKERELVAAISRSGGRTYYADSVKGRFTISRDNAKNTVYLQMNSLKPEDSAVYYWADRLYVGPTAMDYWGEGTQVTVSS | high polyreactivity
20 | QVQLVESGGGLVQAGGSLRLSCAASGRTFGHNAMGWYRQAPGKEREFVAAITYSGVRTFYADSVKGRFTISRDNAKNTVYLQMNSLKPEDTAVYYCATDWRRDYDYWGQGTQVTVSS | low polyreactivity
21 | QVQLVESGGGLVQAGGSLRLSCAASGRTFGHYAMGWYRQAPGKERELVAAITSRGGSTNYADSVKGRFTISRDNAKKTDYLQMNSLKPEDTAVYYCAARLSPEEGYWGQGTQVTVSS | high polyreactivity
22 | QVQLVESGGGLVQAGGSLRLSCAASGRTFGINAMGWYRQAPGKERELVAVISFGEGGTYYADSVKGRFTISRDNAKNTVYLQMNSLKPEDTAVYYCATDYQSTSVWGGHFVINPYDYWGLGTQVTVSS | low polyreactivity

Row | Sequence | polyreactivity (PSR sort gate)
23 | QVQLVESGGGLVQAGGSLRLSCAASGRTFGINDMGWYRQAPGKERELVAVIRSGGGITFYADSVKGRFTISRDNAKNTVYLQMTSLKPEDTAVYYCAKTRRDFYDAINGGGPERYDYWGQGTQVTVSS | low polyreactivity
24 | QVQLVESGGGLVQAGGSLRLSCAASGRTFGIYAMGWYRQAPGKEREFVAAISWSGTSTHYADSVKGRFTISRDNAKNTVYLQMNSLKPEDTAVYYCNADSRTYRYYWSYGYWGQGTQVTVSS | high polyreactivity
25 | QVQLVESGGGLVQAGGSLRLSCAASGRTFGIYAMGWYRQAPGKERELVAAIRWRDGSTYYADSVKGRFTISRDNAKNTVYLQMNSLKPEDTAVYYCAATSRVYVRGSYWKYGYWGQGTQVTVSS | high polyreactivity
26 | QVQLVESGGGLVQAGGSLRLSCAASGRTFGKNAMGWYRQAPGKERELVAAIRYRTGSTYYADSVKGRFTISRDNAKNTVYLQMNSLKPEDTAVYYCAKVGSSPLYWGQGTQVTVSS | high polyreactivity
27 | QVQLVESGGGLVQAGGSLRLSCAASGRTFGKNAMGWYRQAPGKEREYVAAITSRGGSTYYADSVKGRFTISRDNAKNTVYLKMYSLKPDDTAFYFCNREYKRPSQRTEHYYWGQGTQVTVSS | low polyreactivity
28 | QVQLVESGGGLVQAGGSLRLSCAASGRTFGKYAMGWYRQAPGKEREFVAAISRSGGNTYYADSVKGRFTISRDNAKNTVYLQMNSLKPEDTAVYYCAAKGFFYYWGQGTQVTVSS | high polyreactivity
29 | QVQLVESGGGLVQAGGSLRLSCAASGRTFGKYAMGWYRQAPGKERELVAAITNSGGSTYYADSVKGRFTISRDNAKNTVYLQMNSLKPEDTAVYYCNRLGYRGTSKLNHMGYWGQGTQVTVSS | high polyreactivity
30 | QVQLVESGGGLVQAGGSLRLSCAASGRTFGLNAMGWYRQAPGKERELVAAISSSGGSTYYADSVKGRFTISRDNAKNTVYLQMNSLKPEDTAVYYSAKVLYLYGTAYYYWGQGTEVTVSS | high polyreactivity
31 | QVQLVESGGGLVQAGGSLRLSCAASGRTFGLYAMGWYRQAPGKERELVAAIDQSTGSTYYADSVKGRFTISRDNAKNTVYLQMNSLKPEDTAVYYCAAEEASTVRYYWYDYWGQVTQVTVSS | high polyreactivity
32 | QVQLVESGGGLVQAGGSLRLSCAASGRTFGLYAMGWYRQAPGKERELVAAISRSGGRTYYADSVKGRFTISRDNAKNTVYLQMNSLKPEDTAVYYCSTYYDRASYRYDYWGQGTQETVSS | high polyreactivity
33 | QVQLVESGGGLVQAGGSLRLSCAASGRTFGLYAMGWYRQAPGKERELVAAISSGVSTNYADSVKGRFTISRDNAKNTVYLQMNSLKPEDTAVYYCAAKNYYPRVNYWGQGTQVTVSS | high polyreactivity
34 | QVQLVESGGGLVQAGGSLRLSCAASGRTFGLYAMGWYRQAPGKERELVATITTSDIITYYADSVKGRFTISRDNAKNSVYLQMNSLKPEDTAVYYCASGGYDDFSSRPANDYWGQGTQVTVSS | low polyreactivity
35 | QVQLVESGGGLVQAGGSLRLSCAASGRTFGNYVMGWYRQAPGKERELVAAIRSGTNTYYADSVKGRFTISLDNAKNTVYLQMNSLKPEVTAVYYCNKYVRTTDYDYWGQGIQVTVSS | high polyreactivity
36 | QVQLVESGGGLVQAGGSLRLSCAASGRTFGPNAMGWYRQAPGKERELVAGISWRGTSTYYADSVKGRFTISRDNAKNTVYLQMNSLKPEDTAVYYCAKSVYGYGTLYDHWGQGTQVTVSS | high polyreactivity
37 | QVQLVESGGGLVQAGGSLRLSCAASGRTFGPNVMGWYIQAPRKERELVAAITSGGTTYYADSVKGRFTISRDNANNTVYLLMNSLKPEDTAVYYCAKVLRGGRYDYWGQGTQVTVSS | low polyreactivity
38 | QVQLVESGGGLVQAGGSLRLSCAASGRTFGPYAMGWYRQAPGKDSDLVATISWNGGSTYYADSVKGRFTISRDYAKNSVYLQMNSLKPEDTAVYYCAARHWSQSWKYGYWGQGTQVTVSS | high polyreactivity
39 | QVQLVESGGGLVQAGGSLRLSCAASGRTFGPYAMGWYRQAPGKERELVAAISRSGGRTYYADSVKGRFTISRDNAKNTVYLQMNSLKPEDTAVYYCAARYYSEPNAYYYWGQGTQVTVSS | high polyreactivity
40 | QVQLVESGGGLVQAGGSLRLSCAASGRTFGQYAMGWSRQAPGKERELVAAISARGASTYYADSVKGRFTISRDTAKNTVYLQMNSLKPEDTAVYYCNKYGRTSSTPLFYYWGQGTQVTVSS | high polyreactivity
41 | QVQLVESGGGLVQAGGSLRLSCAASGRTFGQYAMGWYRQAPGKERQLVAAISTRGGSTYYADSVKGRFTISRDNAKNTVYLQMNSLKPEDTAVYYCAARPGWFAGYEYWGQGTQVTVSS | low polyreactivity
42 | QVQLVESGGGLVQAGGSLRLSCAASGRTFGRKAMGWYRQAPGKERELVAAIARSGASTYYADSVKGRFTISRDNAKNTVYLQMNSLNPEDTAVYYCAKDVWGSRYAYDYWGQGTQVTVSS | low polyreactivity
43 | QVQLVESGGGLVQAGGSLRLSCAASGRTFGRNAMGWYRQAPGKEREFVAAISRRGDTTYYADSVKGRFTISRDNAKNTVYLQMNSLKPEDTAVYYCNADVIKDRFSWYYYWGQGTQVTVSS | low polyreactivity
